Source: patent publication US6753317 (US Dept. of Health and Human Services, dated 2004)
Starred links: 1 amine or outer side, 2 acyl side, 3 side chain; linkers in the order of their positions; H or OH if unused. Non-standard residues stand in square brackets, D forms with d. *: point of attachment. des‑NH2‑α‑pyrrolidine‑1‑yl = Dmt (2',6'-dimethyl-L-tyrosine) with the α-amine replaced by pyrrolidine-1-yl, Cc1cc(O)cc(C)c1C[C@@H](C(=O)*)N1CCCC1; des‑NH2‑α‑piperidine‑1‑yl = Dmt (2',6'-dimethyl-L-tyrosine) with the α-amine replaced by piperidine-1-yl, Cc1cc(O)cc(C)c1C[C@@H](C(=O)*)N1CCCCC1; βTic = 1,2,3,4-tetrahydroisoquinoline-3-yl acetic acid, O=C(C[C@@H]1Cc2ccccc2CN1[*:1])[*:2]; des‑NH2‑α‑pyrrole‑1‑yl = replacement of the α-amino group by a pyrrol-1-yl group; NH(1-Adamantyl) = C1C2CC3CC1CC(N*)(C2)C3; Dmt = Cc1cc(O)cc(C)c1C[C@H](N)C(=O)O; NH‑tetrazole‑5‑yl = n1nc(N*)n[nH]1; Tic = O=C(O)[C@@H]1Cc2ccccc2CN1; dTic = O=C(O)[C@H]1Cc2ccccc2CN1; NHtBu = CC(C)(C)N*

B1: H-Dmt-Tic-NH-1-adamantane (peptide)
peptide: H-[Dmt]-[Tic]-{NH(1-Adamantyl)}
SMILES: Cc1cc(O)cc(C)c1C[C@H](N)C(=O)N1Cc2ccccc2C[C@H]1C(=O)NC12CC3CC(CC(C3)C1)C2
B2: H-Dmt-βTic-OH (peptide)
peptide: H-[Dmt]-[βTic]-OH
B3: [des-NH2-α-piperidine-1-yl]-Dmt-Tic-OH (peptide)
peptide: {des‑NH2‑α‑piperidine‑1‑yl}-[Dmt]-[Tic]-OH
B4: H-Dmt-D-Tic-NH-1-adamantane (peptide)
peptide: H-[Dmt]-[dTic]-{NH(1-Adamantyl)}
B5: H-Dmt-Tic-NH-tBu (peptide)
peptide: H-[Dmt]-[Tic]-NHtBu
SMILES: Cc1cc(O)cc(C)c1C[C@H](N)C(=O)N1Cc2ccccc2C[C@H]1C(=O)NC(C)(C)C
B6: H-Dmt-Tic-Ala-NH-1-adamantane (peptide)
peptide: H-[Dmt]-[Tic]-Ala-{NH(1-Adamantyl)}
B7: N,N(Me)2-Dmt-Tic-NH-1-adamantane (peptide)
peptide: {N,N‑dimethyl}-[Dmt]-[Tic]-{NH(1-Adamantyl)}
B8: H-Dmt-Tic-NH-tetrazole-5-yl (peptide)
peptide: H-[Dmt]-[Tic]-{NH‑tetrazole‑5‑yl}
B9: H-Dmt-Tic-NHMe (peptide)
peptide: H-[Dmt]-[Tic]-NHMe
B10: N,N(Me)2-Dmt-Tic-NH-tBu (peptide)
peptide: {N,N‑dimethyl}-[Dmt]-[Tic]-NHtBu
B11: H-(R,S)Dmt-Tic-OH (peptide)
peptide: H-[Dmt]-[Tic]-OH
modifications: also: (R,S)-Dmt, racemic, mixture of diastereomers
B12: H-Dmt-Tic-Ala-NH2 (peptide)
peptide: H-[Dmt]-[Tic]-Ala-NH2
B13: [des-NH2-α-pyrrole-1-yl]-Dmt-Tic-OH (peptide)
peptide: {des‑NH2‑α‑pyrrole‑1‑yl}-[Dmt]-[Tic]-OH
B14: N,N(Me)2-Dmt-Tic-NHMe (peptide)
peptide: {N,N‑dimethyl}-[Dmt]-[Tic]-NHMe
B15: N,N(Me)2-Dmt-D-Tic-NH-1-adamantane (peptide)
peptide: {N,N‑dimethyl}-[Dmt]-[dTic]-{NH(1-Adamantyl)}
B16: H-Dmt-Tic-Ala-NHMe (peptide)
peptide: H-[Dmt]-[Tic]-Ala-NHMe
SMILES: CNC(=O)[C@H](C)NC(=O)[C@@H]1Cc2ccccc2CN1C(=O)[C@@H](N)Cc1c(C)cc(O)cc1C
B17: H-Dmt-Tic-Ala-NH-tBu (peptide)
peptide: H-[Dmt]-[Tic]-Ala-NHtBu
SMILES: Cc1cc(O)cc(C)c1C[C@H](N)C(=O)N1Cc2ccccc2C[C@H]1C(=O)N[C@@H](C)C(=O)NC(C)(C)C
B18: [des-NH2-α-pyrrolidine-1-yl]-Dmt-Tic-OH (peptide)
peptide: {des‑NH2‑α‑pyrrolidine‑1‑yl}-[Dmt]-[Tic]-OH
B19: dermorphin: H-Tyr-D-Ala-Phe-Gly-Tyr-Pro-Ser-NH2 (peptide)
peptide: H-Y[dA]FGYPS-NH2

These binders were tested against T1, µ-opioid receptor of the guinea pig ileum (GPI) (guinea pig) (assay: cell-based or functional assay).

Binder	GPI ED50 [µM]	GPI Ke [µM]	GPI pA2
B1	0.036	–	–
B2	> 10	–	–
B3	> 10	–	–
B4	1.68	–	–
B5	1.04	–	–
B6	1	–	–
B7	0.016	–	–
B8	8.2	–	–
B9	> 10	1.15	5.94
B10	> 10	0.3	–
B11	> 10	–	–
B12	4.74	–	–
B13	> 10	–	–
B14	> 10	0.39	6.41
B15	4.48	–	–
B16	0.29	–	–
B17	> 10	0.17	6.76
B18	> 10	–	–

Biological target: T1, µ-opioid receptor of the guinea pig …
Assay: cell-based or functional assay
Remark: another data set of the same source

Binder	IC50 (µ agonist activity, GPI) [µM]
B19	0.00182
